Results published in publication PMC5868259.

Target: PKA catalytic subunit (PKAc), recombinant (UniProt P05132)
Assay: fluorescence polarisation; LiReC competition assay, R-subunit inhibition response without cAMP: 10.0 nM PKAc, 1 nM-1 μM bRIα (monomer), 1.67 nM [5/6-FAM]-IP20; 50 mM MOPS pH 7.0, 35 mM NaCl, 10 mM MgCl2, 1 mM ATP, 2 mM DTT, 0.005% Triton X-100

IC50 | Kd | Substance
5.05 nM | < 10 nM | recombinant bovine PKA regulatory subunit RIα (bRIα), S101A mutant (from UniProt P00514 1-380) (natural protein)
212 nM | – | recombinant bovine PKA regulatory subunit RIα (bRIα), S101E phosphomimetic mutant (from UniProt P00514 1-380) (natural protein)
4.5 nM | < 10 nM | recombinant bovine PKA regulatory subunit RIα (bRIα), wildtype (from UniProt P00514 1-380) (natural protein)
